# Test results published in patent JP2023014062A (dated 2023).
# B1: 抗体NCV2SG53(Fab) (Fab, V domains shown)
# VH: QVQMVESGGGLVRPGGSLRLSCAASGFTFSDYYMSWIRQAPGKGLEWISYISSSGSSMNYADSVKGRFTISRDNAKNSLFLQMNSLRAEDTAVYYCAREFDLTKIIMVPPYWGQGTLVTVSS
# VL: AIQLTQSPSSLSASVGDRVTITCRASQGISSYLAWYQQKPGKAPKVLIYAASTLQSGVPSRFSGSGSGTDFTLTISSLQPEDFATYYCQQLKSYPLTFGGGTKVEIT
# notes: also called Fab(抗体NCV2SG53)
# B2: 抗体NCV2SG53 (antibody, V domains shown)
# VH: QVQMVESGGGLVRPGGSLRLSCAASGFTFSDYYMSWIRQAPGKGLEWISYISSSGSSMNYADSVKGRFTISRDNAKNSLFLQMNSLRAEDTAVYYCAREFDLTKIIMVPPYWGQGTLVTVSS
# VL: AIQLTQSPSSLSASVGDRVTITCRASQGISSYLAWYQQKPGKAPKVLIYAASTLQSGVPSRFSGSGSGTDFTLTISSLQPEDFATYYCQQLKSYPLTFGGGTKVEIT
# B3: 抗体NCV2SG48(Fab) (Fab, V domains shown)
# VH: EVQLVESGGGLIQPGGSLRLSCAASGFIVSRNYMNWVRQAPGKGLEWVALIYSGGSTFYADSVKGRFTISRDNSKNTLYLQMNSLRAEDTAVYYCARDLVVYGLDYWGQGTLVTVSS
# VL: AIQLTQSPSSLSASVGDRVTITCRASQGISSHLAWYQQKPGKAPKLLIFAASTLQSGVPSRFSGSGSGTDFTLTISSLQPEDFATYYCQHLNSNPPITFGQGTRLEIK
# notes: also called Fab(抗体NCV2SG48)
# What was measured:
# [1] = target: T1, SARS-CoV-2(従来株(武漢株))のSタンパク質のRBDタンパク質 (SARS-CoV-2(従来株(武漢株)), UniProt P0DTC2 322-536); experiment: X-ray crystal structure of the RBD-Fab complex
# T1 construct: range 322-536
# [2] = target: T1, SARS-CoV-2(従来株(武漢株))のSタンパク質のRBDタンパク質; experiment: ELISA, RBD coated at 2 μg/ml, Expi293 culture supernatant, HRP anti-human IgG
Binder,binding result [1],binding result [2]
B1,binds,–
B2,–,binds
B3,binds,–
